This is an account of results in US7378087.

Assay [1] addresses H-2D^b MHC class I molecule (mouse) (UniProt P01899). The assay is described as follows: FACS on RMA-S cells; IFN +, peptide -, hβ2m +.
Assay [2] has the same target. Briefly: FACS on CMT.64 cells; IFN -, peptide +, hβ2m +.
Assay [3] has the same target. Briefly: FACS on CMT.64 cells; IFN +, peptide -, hβ2m -.
Assay [4] shares this target. Briefly: FACS on RMA cells; IFN -, peptide -, hβ2m -.
For assay [5] the target is unchanged. Briefly: FACS on RMA cells; IFN +, peptide +, hβ2m -.
Assay [6] shares this target. The assay is described as follows: FACS on RMA-S cells; IFN -, peptide +, hβ2m +.
Assay [7] shares this target. Briefly: FACS on RMA cells; IFN +, peptide +, hβ2m +.
Assay [8] shares this target. Briefly: FACS on RMA-S cells; IFN -, peptide -, hβ2m -.
Assay [9] has the same target. Briefly: FACS on RMA-S cells; IFN +, peptide +, hβ2m -.
The target is the same in assay [10]. The assay is described as follows: FACS on RMA-S cells; IFN +, peptide -, hβ2m -.
The target is the same in assay [11]. The assay is described as follows: FACS on RMA cells; IFN -, peptide +, hβ2m +.
Assay [12] shares this target. Briefly: FACS on CMT.64 cells; IFN * (so in the source), peptide +, hβ2m +.
The target is the same in assay [13]. The assay is described as follows: FACS on RMA cells; IFN +, peptide -, hβ2m -.
Assay [14] shares this target. The assay is described as follows: FACS on CMT.64 cells; IFN -, peptide -, hβ2m -.
Assay [15] has the same target. The assay is described as follows: FACS on RMA cells; IFN +, peptide -, hβ2m +.
For assay [16] the target is unchanged. The assay is described as follows: FACS on RMA-S cells; IFN +, peptide +, hβ2m +.
Assay [17] has the same target. The assay is described as follows: FACS on CMT.64 cells treated with IFN-γ.
Assay [18] shares this target. The assay is described as follows: FACS on CMT.64 cells.
For assay [19] the target is unchanged. Briefly: FACS on CMT.2-10 cells (rTAP2 transfectant).
Assay [20] has the same target. The assay is described as follows: FACS on CMT.2-1 cells (rTAP2 transfectant).
Assay [21] has the same target. The assay is described as follows: FACS on CMT.1-4 cells (rTAP1 transfectant).
Assay [22] has the same target. Briefly: single-colour FACS on RMA-S.ptml cells (TAP-1 antisense).
Assay [23] shares this target. Briefly: single-colour FACS on RMA-S cells (linear, 5000 events).
For assay [24] the target is unchanged. The assay is described as follows: FACS on CMT.12-21 cells (rTAP1,2 transfectant).
Assay [25] has the same target. The assay is described as follows: FACS on CMT.1-10 cells (rTAP1 transfectant).
In assay [26] the target is human β2-microglobulin (human) (UniProt P61769). Briefly: FACS on RMA-S cells; IFN +, peptide -, hβ2m - (no hβ2m added: background).
Chain of UniProt P61769 (P61769 21-119 limits assumed): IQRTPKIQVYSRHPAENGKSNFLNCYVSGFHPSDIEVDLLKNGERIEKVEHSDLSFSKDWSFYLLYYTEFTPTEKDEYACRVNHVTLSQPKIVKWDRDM
For assay [27] the target is unchanged. Briefly: FACS on RMA-S cells; IFN -, peptide +, hβ2m + (hβ2m bound on the cell surface).
For assay [28] the target is unchanged. The assay is described as follows: FACS on RMA cells; IFN +, peptide -, hβ2m + (hβ2m bound on the cell surface).
Assay [29] has the same target. The assay is described as follows: FACS on RMA cells; IFN +, peptide +, hβ2m + (hβ2m bound on the cell surface).
For assay [30] the target is unchanged. The assay is described as follows: FACS on RMA cells; IFN -, peptide +, hβ2m + (hβ2m bound on the cell surface).
Assay [31] shares this target. Briefly: FACS on RMA-S cells; IFN +, peptide +, hβ2m + (hβ2m bound on the cell surface).
Assay [32] shares this target. The assay is described as follows: FACS on RMA cells; IFN +, peptide -, hβ2m - (no hβ2m added: background).
The target is the same in assay [33]. The assay is described as follows: FACS on RMA-S cells; IFN +, peptide -, hβ2m + (hβ2m bound on the cell surface).
Assay [34] has the same target. The assay is described as follows: FACS on RMA-S cells; IFN -, peptide -, hβ2m - (no hβ2m added: background).
The target is the same in assay [35]. Briefly: FACS on RMA cells; IFN -, peptide -, hβ2m - (no hβ2m added: background).
Assay [36] has the same target. Briefly: FACS on RMA-S cells; IFN +, peptide +, hβ2m - (no hβ2m added: background).
Assay [37] shares this target. The assay is described as follows: FACS on RMA cells; IFN +, peptide +, hβ2m - (no hβ2m added: background).
In assay [38] the target is H-2K^b MHC class I molecule (mouse) (UniProt P01901). Briefly: FACS on CMT.64 cells treated with IFN-γ.
Chain of UniProt P01901 (P01901 22-305 limits assumed): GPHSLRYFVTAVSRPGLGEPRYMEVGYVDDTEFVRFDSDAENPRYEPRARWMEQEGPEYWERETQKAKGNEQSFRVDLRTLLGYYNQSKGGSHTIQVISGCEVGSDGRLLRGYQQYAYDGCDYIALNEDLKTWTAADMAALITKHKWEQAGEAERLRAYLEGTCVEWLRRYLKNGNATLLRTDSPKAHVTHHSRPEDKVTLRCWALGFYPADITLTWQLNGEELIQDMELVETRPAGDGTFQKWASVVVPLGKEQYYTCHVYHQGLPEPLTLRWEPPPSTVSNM
Assay [39] has the same target. The assay is described as follows: FACS on CMT.64 cells.
For assay [40] the target is unchanged. The assay is described as follows: FACS on CMT.2-10 cells (rTAP2 transfectant).
Assay [41] shares this target. The assay is described as follows: FACS on CMT.2-1 cells (rTAP2 transfectant).
The target is the same in assay [42]. Briefly: FACS on CMT.1-4 cells (rTAP1 transfectant).
The target is the same in assay [43]. The assay is described as follows: FACS on CMT.neo cells (vector control).
For assay [44] the target is unchanged. Briefly: FACS on CMT.1-1 cells (rTAP1 transfectant).
Assay [45] shares this target. The assay is described as follows: single-colour FACS on RMA-S.ptml cells (TAP-1 antisense).
Assay [46] has the same target. Briefly: single-colour FACS on RMA-S cells (linear, 5000 events).
The target is the same in assay [47]. Briefly: FACS on CMT.12-21 cells (rTAP1,2 transfectant).
The target is the same in assay [48]. The assay is described as follows: FACS on CMT.1-10 cells (rTAP1 transfectant).

Chain of UniProt P01899 (P01899 25-309 limits assumed): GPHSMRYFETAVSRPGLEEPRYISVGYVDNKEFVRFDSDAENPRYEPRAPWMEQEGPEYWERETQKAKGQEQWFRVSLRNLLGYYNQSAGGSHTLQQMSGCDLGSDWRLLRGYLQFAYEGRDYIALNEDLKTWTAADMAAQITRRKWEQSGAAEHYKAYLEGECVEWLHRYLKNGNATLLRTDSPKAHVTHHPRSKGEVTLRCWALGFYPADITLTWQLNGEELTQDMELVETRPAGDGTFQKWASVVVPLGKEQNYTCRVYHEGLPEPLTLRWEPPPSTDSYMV

For the substance “28-11-5s anti H-2 D^b (α1+α2) monoclonal antibody”, the fluorescence units (arbitrary fluorescence units) in assay [1] came out at 2; in assay [2], 5; in assay [3] it was 58; in [4], 173; in assay [5] it was 449; in assay [6], 2. For the same substance, the fluorescence units (arbitrary fluorescence units) in assay [7] was 515; in assay [8], 2; in [9], 1; in [10], 4; in assay [11] it was 182; in [12], 53. The fluorescence units (arbitrary fluorescence units) in assay [13] was found to be 430; in assay [14] it was 3; in assay [15], 549; in assay [16], 2.
Consider “28-14-8s anti H-2 D^b (α3) monoclonal antibody”, for which the immunofluorescence intensity (negative control subtracted) turned out to be 1100 in [17]; 18 in assay [18]; 39 in [19]; 10 in [20]; 164 in assay [21]; 103 in [24]. Further, the immunofluorescence intensity (negative control subtracted) in [25] stood at 68. Further, the MEAN FLUORESCENCE in assay [22] stood at 96.7; in assay [23], 130.
Take “BBM.1 monoclonal antibody against human β2m”: the fluorescence units (arbitrary fluorescence units) was found to be 14 in [26]; 86 in [27]; 406 in assay [28]; 606 in assay [29]; 274 in assay [30]; 262 in assay [31]. The fluorescence units (arbitrary fluorescence units) in [32] was 6; in assay [33], 76; in assay [34], 1; in [35], 1; in [36] it was 14; in assay [37], 4.
For the substance Y-3 anti-H-2K^b monoclonal antibody, the immunofluorescence intensity (negative control subtracted) amounted to 590 in [38]; 0 in assay [39]; 48 in assay [40]; 3 in [41]; 64 in assay [42]; 0.1 in assay [43]. The immunofluorescence intensity (negative control subtracted) was determined as 62 in assay [44], 22 in assay [47] and 36 in assay [48]. Also, the values for the MEAN FLUORESCENCE in assay [45] and in assay [46] were 149 and 222, respectively.
